From the supplement of paper PMC7125110 come the findings set out here.

± gives the standard error. For some assays here: Variants at the floor of the assay were thinned out.

In general, kcat refers to the maximal rate divided by the concentration of active sites. The KM is the concentration of substrate that gives half-maximal velocity.

First the molecules themselves.
B1: glmS ribozyme (parent)
chain: AUAAAAGCGCCAGAACUACAGAAAUGUAGUUGACGAGGAGGAGGUUUAUCGAAUUUUCGGCGGAUGCCUCCAAA

Conditions in all cases: with glucosamine-6-phosphate
Data set [1] covers variants of B1. Description: kcat; higher = faster cleavage; RNA array. An outline of the steps:
(§1)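 Glucosamine-6-phosphate, from 40 μM to 10 mM in HEPES/KCl/Mg(OAc)2 buffer, was flowed over sequenced MiSeq chips carrying barcoded ribozyme variants transcribed in situ by E. coli RNA polymerase. A hybridised Cy3 probe tracked the variants at 37 °C as tiles were imaged over ~14 h. kobs, kcat and KM were obtained by fitting normalised per-tile medians to exponential decays and then applying weighted Michaelis–Menten fits across concentrations.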

Variants of B1 are the subject of data set [2]. Description: KM; higher = weaker cofactor use; RNA array. Put shortly:
as §1

Data set [3] covers variants of B1. Description: self-cleavage kobs at 640 uM GlcN6P; higher = faster cleavage; RNA array. Put shortly:
as §1

The variants in data set [4] derive from B1. Description: self-cleavage kobs at 2500 uM GlcN6P; higher = faster cleavage; RNA array. Put shortly: as §1
In data set [5] the parent is B1. Description: self-cleavage kobs at 10000 uM GlcN6P; higher = faster cleavage; RNA array. An outline of the steps: as §1
Variants of B1 are the subject of data set [6]. The experiment in a line: self-cleavage kobs at 160 uM GlcN6P; higher = faster cleavage; RNA array. Put shortly:
as §1

Data set [7] covers variants of B1. Description: self-cleavage kobs at 40 uM GlcN6P; higher = faster cleavage; RNA array. An outline of the steps:
as §1

With C11U C71G, the kcat in the data set with glucosamine-6-phosphate [1] was 0.000109 ± 9.1e-06 s⁻¹. Further, the KM with glucosamine-6-phosphate [2] amounted to 408 ± 150 µM. Moreover, the “self-cleavage kobs at 640 uM GlcN6P” value in the data set with glucosamine-6-phosphate [3] was found to be 7.07e-05 ± 1.2e-05 s⁻¹. Further, the “self-cleavage kobs at 2500 uM GlcN6P” value with glucosamine-6-phosphate [4] was 8.38e-05 ± 1.2e-05 s⁻¹. Also, in the data set with glucosamine-6-phosphate [5], the “self-cleavage kobs at 10000 uM GlcN6P” value was found to be 0.000111 ± 1.2e-05 s⁻¹.
For A14C U69G, the kcat with glucosamine-6-phosphate [1] was 4.01e-05 ± 6.9e-06 s⁻¹. In the data set with glucosamine-6-phosphate [6], the “self-cleavage kobs at 160 uM GlcN6P” value was determined as 6.28e-05 ± 2.1e-05 s⁻¹. Further, in the data set with glucosamine-6-phosphate [3], the “self-cleavage kobs at 640 uM GlcN6P” value was 5.28e-05 ± 2.2e-05 s⁻¹. In the data set with glucosamine-6-phosphate [4], the “self-cleavage kobs at 2500 uM GlcN6P” value is 4.06e-05 ± 9.1e-06 s⁻¹. Also, in the data set with glucosamine-6-phosphate [5], the “self-cleavage kobs at 10000 uM GlcN6P” value worked out at 3.03e-05 ± 1.2e-05 s⁻¹.
On to C34U U54C C68G, for which, in the data set with glucosamine-6-phosphate [1], the kcat amounted to 1.64e-05 ± 4.9e-06 s⁻¹.
As for C68G U69A, the kcat in the data set with glucosamine-6-phosphate [1] came out at 1.57e-05 ± 5.7e-06 s⁻¹.
Take A39C G59A: in the data set with glucosamine-6-phosphate [1], the catalytic constant (kcat) was below 1e-05 s⁻¹. Besides, in the data set with glucosamine-6-phosphate [7], the “self-cleavage kobs at 40 uM GlcN6P” value is below 1e-05 s⁻¹. Further, the “self-cleavage kobs at 160 uM GlcN6P” value with glucosamine-6-phosphate [6] was below 1e-05 s⁻¹. Moreover, the “self-cleavage kobs at 640 uM GlcN6P” value with glucosamine-6-phosphate [3] was below 1e-05 s⁻¹.
In the case of U54A C58G, in the data set with glucosamine-6-phosphate [1], the kcat amounted to 0.000169 ± 2.8e-05 s⁻¹. For the same variant, the KM with glucosamine-6-phosphate [2] was determined as 3660 ± 1700 µM. Further, the “self-cleavage kobs at 40 uM GlcN6P” value with glucosamine-6-phosphate [7] was below 1e-05 s⁻¹. Further, the “self-cleavage kobs at 2500 uM GlcN6P” value with glucosamine-6-phosphate [4] turned out to be 7.4e-05 ± 2.3e-05 s⁻¹. In addition, the “self-cleavage kobs at 10000 uM GlcN6P” value in the data set with glucosamine-6-phosphate [5] was 0.000123 ± 2.1e-05 s⁻¹.
As to A14U G59U, the catalytic constant (kcat) with glucosamine-6-phosphate [1] is below 1e-05 s⁻¹. Also, the “self-cleavage kobs at 160 uM GlcN6P” value with glucosamine-6-phosphate [6] was below 1e-05 s⁻¹. Further, the “self-cleavage kobs at 2500 uM GlcN6P” value in the data set with glucosamine-6-phosphate [4] was below 1e-05 s⁻¹.
As to A14C G66U, the kcat with glucosamine-6-phosphate [1] was found to be 0.000181 ± 3.7e-05 s⁻¹. Also, in the data set with glucosamine-6-phosphate [3], the “self-cleavage kobs at 640 uM GlcN6P” value is 8.12e-05 ± 1.4e-05 s⁻¹. Further, the “self-cleavage kobs at 2500 uM GlcN6P” value in the data set with glucosamine-6-phosphate [4] stood at 9.62e-05 ± 2e-05 s⁻¹. The “self-cleavage kobs at 10000 uM GlcN6P” value with glucosamine-6-phosphate [5] was 0.000191 ± 2.6e-05 s⁻¹.
In the case of A14C U31A, in the data set with glucosamine-6-phosphate [1], the kcat was 0.0083 ± 0.0041 s⁻¹. The “self-cleavage kobs at 40 uM GlcN6P” value in the data set with glucosamine-6-phosphate [7] was found to be 0.000559 ± 0.00011 s⁻¹. Further, the “self-cleavage kobs at 160 uM GlcN6P” value in the data set with glucosamine-6-phosphate [6] stood at 0.00135 ± 0.00031 s⁻¹. For the same variant, the “self-cleavage kobs at 640 uM GlcN6P” value in the data set with glucosamine-6-phosphate [3] worked out at 0.00413 ± 0.0019 s⁻¹. The “self-cleavage kobs at 2500 uM GlcN6P” value with glucosamine-6-phosphate [4] was found to be 0.00676 ± 0.0026 s⁻¹.
On to A42G U46G, for which the kcat with glucosamine-6-phosphate [1] is 0.017 ± 0.0083 s⁻¹. Further, in the data set with glucosamine-6-phosphate [7], the “self-cleavage kobs at 40 uM GlcN6P” value stood at 0.000254 ± 6.6e-05 s⁻¹. Moreover, in the data set with glucosamine-6-phosphate [6], the “self-cleavage kobs at 160 uM GlcN6P” value is 0.000694 ± 0.00017 s⁻¹. For the same variant, the “self-cleavage kobs at 640 uM GlcN6P” value with glucosamine-6-phosphate [3] is 0.00167 ± 0.00038 s⁻¹. Besides, the “self-cleavage kobs at 2500 uM GlcN6P” value in the data set with glucosamine-6-phosphate [4] is 0.0074 ± 0.0015 s⁻¹. The “self-cleavage kobs at 10000 uM GlcN6P” value in the data set with glucosamine-6-phosphate [5] was 0.0115 ± 0.0033 s⁻¹.
On to A42G U46C, for which, in the data set with glucosamine-6-phosphate [1], the kcat was 0.00159 ± 0.00025 s⁻¹. The KM in the data set with glucosamine-6-phosphate [2] came to 1020 ± 260 µM. Besides, the “self-cleavage kobs at 40 uM GlcN6P” value with glucosamine-6-phosphate [7] was found to be 5.01e-05 ± 1.5e-05 s⁻¹. In addition, in the data set with glucosamine-6-phosphate [6], the “self-cleavage kobs at 160 uM GlcN6P” value amounted to 0.000237 ± 4.5e-05 s⁻¹. In addition, in the data set with glucosamine-6-phosphate [3], the “self-cleavage kobs at 640 uM GlcN6P” value was 0.000597 ± 9.9e-05 s⁻¹. The “self-cleavage kobs at 2500 uM GlcN6P” value in the data set with glucosamine-6-phosphate [4] was determined as 0.00137 ± 0.00023 s⁻¹. In the data set with glucosamine-6-phosphate [5], the “self-cleavage kobs at 10000 uM GlcN6P” value was found to be 0.00122 ± 0.00028 s⁻¹.
As to U54C C70G, the kcat with glucosamine-6-phosphate [1] stood at 0.000186 ± 3.5e-05 s⁻¹. In the data set with glucosamine-6-phosphate [7], the “self-cleavage kobs at 40 uM GlcN6P” value came to 5.08e-05 ± 1.5e-05 s⁻¹. Also, the “self-cleavage kobs at 160 uM GlcN6P” value in the data set with glucosamine-6-phosphate [6] was 0.000109 ± 3.8e-05 s⁻¹. For the same variant, in the data set with glucosamine-6-phosphate [3], the “self-cleavage kobs at 640 uM GlcN6P” value was found to be 0.000175 ± 2.3e-05 s⁻¹. Besides, the “self-cleavage kobs at 2500 uM GlcN6P” value with glucosamine-6-phosphate [4] turned out to be 0.000139 ± 2.6e-05 s⁻¹. Moreover, in the data set with glucosamine-6-phosphate [5], the “self-cleavage kobs at 10000 uM GlcN6P” value stood at 0.000325 ± 6.2e-05 s⁻¹.
Regarding G51A U69A, the kcat with glucosamine-6-phosphate [1] came to 1.6e-05 ± 2.9e-06 s⁻¹.
On to A15U A33G, for which the kcat with glucosamine-6-phosphate [1] is below 1e-05 s⁻¹. Besides, the “self-cleavage kobs at 10000 uM GlcN6P” value in the data set with glucosamine-6-phosphate [5] was below 1e-05 s⁻¹.
On to A48G C50A G63A, for which, in the data set with glucosamine-6-phosphate [1], the kcat is below 1e-05 s⁻¹. Further, the “self-cleavage kobs at 160 uM GlcN6P” value with glucosamine-6-phosphate [6] was below 1e-05 s⁻¹. In addition, in the data set with glucosamine-6-phosphate [5], the “self-cleavage kobs at 10000 uM GlcN6P” value was below 1e-05 s⁻¹.
As to G66A C67A, the kcat with glucosamine-6-phosphate [1] is 0.00809 ± 0.0018 s⁻¹. Besides, the KM with glucosamine-6-phosphate [2] amounted to 1620 ± 470 µM. Besides, in the data set with glucosamine-6-phosphate [7], the “self-cleavage kobs at 40 uM GlcN6P” value stood at 0.000216 ± 3.4e-05 s⁻¹. Besides, the “self-cleavage kobs at 160 uM GlcN6P” value with glucosamine-6-phosphate [6] was 0.000708 ± 0.00012 s⁻¹. Further, the “self-cleavage kobs at 640 uM GlcN6P” value with glucosamine-6-phosphate [3] was 0.00222 ± 0.0004 s⁻¹. For the same variant, in the data set with glucosamine-6-phosphate [4], the “self-cleavage kobs at 2500 uM GlcN6P” value stood at 0.00373 ± 0.00093 s⁻¹. The “self-cleavage kobs at 10000 uM GlcN6P” value with glucosamine-6-phosphate [5] was found to be 0.00873 ± 0.0016 s⁻¹.
Consider G37C G59U, for which the kcat with glucosamine-6-phosphate [1] is 1.65e-05 ± 6.9e-06 s⁻¹.
On to U31C C34G, for which the kcat with glucosamine-6-phosphate [1] stood at 1.37e-05 ± 8.9e-07 s⁻¹. Besides, the Michaelis constant (KM) with glucosamine-6-phosphate [2] was 1370 ± 240 µM.
